The results in this text go back to patent EP2918281A1 (Max-Planck-Gesellschaft zur Förderung der Wissenschaften …, dated 2015).

This experiment addresses HIV-1 protease (EC 3.4.23.16) (HIV-1). The experiment is described as follows: cell-based or functional assay.

B1: inhibitor 04 (other, not shown: small tags and cut ends)
chain: KMEGKSMLKLSHVLAFLLLASLFQSLMARDLISDGIEVLQLPVENEGESVFCPGKLSWPELVGMPAGYAKAIIEKENSIVHDVRLLLPGMVKPANYVCGRVFLVVDLKLIVQIPPSMG
Turning to B1, the “IC50 (enzyme inhibition)” value is 670 nM.
